Reference: the Immune Epitope Database (IEDB)
Blank lines part the entries; values can stand above or below the sequence they belong to.

Key:
HLA-A*01:01 = test: IEDB peptide-MHC binding, purified MHC/direct/fluorescence; filed as Kd, often an IC50 or EC50 that approximates it; ≥ and ≤ were set here for values at or beyond the usual limits of such assays
HLA-A*02:01 [1] = test: as above
HLA-A*03:01 = test: as above
HLA-A*11:01 = test: as above
HLA-A*26:02 [2] = test: as above
HLA-A*26:03 = test: as above
HLA-A*31:01 = test: as above
HLA-A*68:02 [3] = test: as above
HLA-A*69:01 = test: as above
HLA-B*07:02 = test: as above
HLA-B*08:01 [4] = test: as above
HLA-B*08:03 = test: as above
HLA-B*15:01 = test: as above
HLA-B*18:01 = test: as above
HLA-B*27:05 = test: as above
HLA-B*40:01 = test: as above
HLA-B*46:01 = test: as above
HLA-B*48:01 [5] = test: as above
HLA-B*57:01 = test: as above
HLA-B*58:01 = test: as above
HLA-B*15:17 [6] = test: IEDB peptide-MHC binding, purified MHC/competitive/fluorescence; filed as Kd, often an IC50 or EC50 that approximates it; ≥ and ≤ were set here for values at or beyond the usual limits of such assays
HLA-A*26:01 = test: IEDB peptide-MHC binding, purified MHC/direct/fluorescence; filed as Kd, often an IC50 or EC50 that approximates it; ≥ and ≤ were set here for values at or beyond the usual limits of such assays; conditions: source organism: Influenza A virus(A/swine/Shandong/fNY/2003(H9N2))
HLA-B*15:17 [7] = test: as above
HLA-B*15:09 = test: IEDB peptide-MHC binding, purified MHC/competitive/fluorescence; filed as Kd, often an IC50 or EC50 that approximates it; ≥ and ≤ were set here for values at or beyond the usual limits of such assays
HLA-B*51:01 = test: as above; conditions: source organism: Influenza A virus H3N2
HLA-C*04:01 = test: IEDB peptide-MHC binding, purified MHC/direct/fluorescence; filed as Kd, often an IC50 or EC50 that approximates it; ≥ and ≤ were set here for values at or beyond the usual limits of such assays
HLA-B*48:01 [8] = test: IEDB peptide-MHC binding, purified MHC/competitive/fluorescence; filed as Kd, often an IC50 or EC50 that approximates it; ≥ and ≤ were set here for values at or beyond the usual limits of such assays; conditions: source organism: Cryptosporidium parvum Iowa II
HLA-C*08:02 = test: IEDB peptide-MHC binding, purified MHC/direct/fluorescence; filed as Kd, often an IC50 or EC50 that approximates it; ≥ and ≤ were set here for values at or beyond the usual limits of such assays; conditions: source organism: human gammaherpesvirus 4
HLA-A*02:01 [9] = test: IEDB peptide-MHC binding, purified MHC/competitive/fluorescence; filed as Kd, often an IC50 or EC50 that approximates it; ≥ and ≤ were set here for values at or beyond the usual limits of such assays; conditions: source organism: Escherichia coli 536
HLA-A*26:02 [10] = test: as above; conditions: source organism: Escherichia coli 536
HLA-A*68:02 [11] = test: as above; conditions: source organism: Escherichia coli 536
HLA-B*39:01 = test: as above
HLA-A*23:01 = test: IEDB peptide-MHC binding, purified MHC/direct/fluorescence; filed as Kd, often an IC50 or EC50 that approximates it; ≥ and ≤ were set here for values at or beyond the usual limits of such assays; conditions: source organism: Vibrio vulnificus YJ016
HLA-A*24:02 = test: as above; conditions: source organism: Vibrio vulnificus YJ016
HLA-A*24:03 = test: as above; conditions: source organism: Vibrio vulnificus YJ016
HLA-B*08:02 = test: as above; conditions: source organism: Vibrio vulnificus YJ016
HLA-A*02:06 = test: IEDB peptide-MHC binding, purified MHC/competitive/fluorescence; filed as Kd, often an IC50 or EC50 that approximates it; ≥ and ≤ were set here for values at or beyond the usual limits of such assays; conditions: source organism: Vibrio vulnificus YJ016
HLA-B*08:01 [12] = test: as above; conditions: source organism: Vibrio vulnificus YJ016
[13] = source organism: Camelpox virus M-96
[14] = source organism: Influenza A virus (A/SW/MN/12883/00(H1N2))
[15] = source organism: Vibrio cholerae
[16] = source organism: Vibrio vulnificus CMCP6
[17] = source organism: Escherichia coli O157:H7
[18] = source organism: Escherichia coli 536
[19] = source organism: Vibrio vulnificus YJ016

Sequence: ATNDGLIKK
Kd (HLA-A*01:01; [13]): ≥ 20 µM
Kd (HLA-A*02:01 [1]; [13]): ≥ 20 µM
Kd (HLA-A*03:01; [13]): 1460 nM
Kd (HLA-A*11:01; [13]): 0.01 µM
Kd (HLA-A*26:02 [2]; source organism: Variola virus): ≥ 20 µM
Kd (HLA-A*26:03; source organism: Variola virus): ≥ 20 µM
Kd (HLA-A*31:01; [13]): 0.119 µM
Kd (HLA-A*68:02 [3]; [13]): ≥ 20 µM
Kd (HLA-A*69:01; [13]): ≥ 20 µM
Kd (HLA-B*07:02; [13]): ≥ 20000 nM
Kd (HLA-B*08:01 [4]; source organism: Variola virus): ≥ 20 µM
Kd (HLA-B*08:03; source organism: Variola virus): ≥ 20 µM
Kd (HLA-B*15:01; [13]): ≥ 20 µM
Kd (HLA-B*18:01; [13]): ≥ 20 µM
Kd (HLA-B*27:05; [13]): ≥ 20 µM
Kd (HLA-B*40:01; [13]): ≥ 20 µM
Kd (HLA-B*46:01; [13]): ≥ 20 µM
Kd (HLA-B*48:01 [5]; [13]): ≥ 20 µM
Kd (HLA-B*57:01; [13]): ≥ 20 µM
Kd (HLA-B*58:01; [13]): 9 µM
Kd (HLA-B*15:17 [6]; source organism: Vaccinia virus WR): ≥ 20000 nM

Sequence: FPNEVGARI
Kd (HLA-A*01:01; [14]): ≥ 20 µM
Kd (HLA-A*02:01 [1]; [14]): ≥ 20 µM
Kd (HLA-A*03:01; [14]): ≥ 20000 nM
Kd (HLA-A*11:01; [14]): ≥ 20 µM
Kd (HLA-A*26:01): ≥ 20 µM
Kd (HLA-A*31:01; [14]): ≥ 20 µM
Kd (HLA-A*69:01; [14]): 0.0038 µM
Kd (HLA-B*07:02; [14]): 66 nM
Kd (HLA-B*08:01 [4]; source organism: Influenza A virus(A/swine/Shandong/fNY/2003(H9N2))): 3.05 µM
Kd (HLA-B*15:01; [14]): ≥ 20 µM
Kd (HLA-B*15:17 [7]; [14]): ≥ 20 µM
Kd (HLA-B*18:01; [14]): ≥ 20 µM
Kd (HLA-B*27:05; [14]): ≥ 20 µM
Kd (HLA-B*40:01; [14]): ≥ 20 µM
Kd (HLA-B*46:01; [14]): ≥ 20 µM
Kd (HLA-B*48:01 [5]; [14]): ≥ 20 µM
Kd (HLA-B*57:01; [14]): ≥ 20 µM
Kd (HLA-B*58:01; [14]): ≥ 20 µM
Kd (HLA-B*15:09; source organism: Influenza A virus H3N2): 1130 nM
Kd (HLA-B*51:01): 352 nM

Sequence: IQNDLITEF
Kd (HLA-C*04:01; source organism: Vaccinia virus Copenhagen): ≥ 20 µM

Sequence: IQNEIMKPL
Kd (HLA-B*48:01 [8]): 502 nM

Sequence: KGHLPLLDK
Kd (HLA-A*01:01; [15]): ≥ 20 µM
Kd (HLA-A*02:01 [1]; [15]): ≥ 20 µM
Kd (HLA-A*03:01; [15]): 55.5 nM
Kd (HLA-A*26:02 [2]; [16]): ≥ 20 µM
Kd (HLA-A*26:03; [16]): ≥ 20 µM
Kd (HLA-A*31:01; [15]): 3.98 µM
Kd (HLA-A*68:02 [3]; [15]): ≥ 20 µM
Kd (HLA-A*69:01; [15]): ≥ 20 µM
Kd (HLA-B*07:02; [15]): ≥ 20000 nM
Kd (HLA-B*08:01 [4]; [16]): ≥ 20 µM
Kd (HLA-B*08:03; [16]): ≥ 20 µM
Kd (HLA-B*15:01; [15]): ≥ 20 µM
Kd (HLA-B*15:17 [7]; [15]): ≥ 20 µM
Kd (HLA-B*27:05; [15]): ≥ 20 µM
Kd (HLA-B*40:01; [15]): ≥ 20 µM
Kd (HLA-B*46:01; [15]): ≥ 20 µM
Kd (HLA-B*48:01 [5]; [15]): ≥ 20 µM
Kd (HLA-B*57:01; [15]): ≥ 20 µM
Kd (HLA-B*58:01; [15]): ≥ 20 µM

Sequence: RSDEYVAYY
Kd (HLA-C*04:01; source organism: human gammaherpesvirus 4): ≥ 20 µM
Kd (HLA-C*08:02): 481 nM

Kd (HLA-A*01:01; [17]): ≥ 20 µM
Kd (HLA-A*11:01; [17]): ≥ 20 µM
Kd (HLA-A*31:01; [17]): ≥ 20 µM
Kd (HLA-A*69:01; [17]): ≥ 20 µM
Kd (HLA-B*07:02; [17]): 149 nM
Kd (HLA-B*15:01; [17]): 0.019 µM
Kd (HLA-B*27:05; [17]): ≥ 20 µM
Kd (HLA-B*46:01; [17]): 1.34 µM
Kd (HLA-B*48:01 [5]; [17]): ≥ 20 µM
Kd (HLA-B*57:01; [17]): ≥ 20 µM
Kd (HLA-A*02:01 [9]): ≥ 20 µM
Kd (HLA-A*26:02 [10]): ≥ 20 µM
Kd (HLA-A*68:02 [11]): ≥ 20 µM
Kd (HLA-B*15:09; [18]): ≥ 20000 nM
Kd (HLA-B*15:17 [6]; [18]): 214 nM
Kd (HLA-B*39:01; [18]): ≥ 20000 nM
Sequence: VMAASGAPF

Sequence: WHQARFEEL
Kd (HLA-A*01:01; [19]): ≥ 20 µM
Kd (HLA-A*02:01 [1]; [19]): ≥ 20 µM
Kd (HLA-A*03:01; [19]): ≥ 20000 nM
Kd (HLA-A*11:01; [19]): ≥ 20 µM
Kd (HLA-A*23:01): 1700 nM
Kd (HLA-A*24:02): 8.8 µM
Kd (HLA-A*24:03): 145 nM
Kd (HLA-A*26:03; [19]): ≥ 20 µM
Kd (HLA-A*31:01; [19]): ≥ 20 µM
Kd (HLA-A*68:02 [3]; [19]): ≥ 20 µM
Kd (HLA-A*69:01; [19]): ≥ 20 µM
Kd (HLA-B*07:02; [19]): ≥ 20000 nM
Kd (HLA-B*08:02): ≥ 20 µM
Kd (HLA-B*15:01; [19]): ≥ 20 µM
Kd (HLA-B*15:17 [7]; [19]): ≥ 20 µM
Kd (HLA-B*18:01; [19]): ≥ 20 µM
Kd (HLA-B*27:05; [19]): ≥ 20 µM
Kd (HLA-B*57:01; [19]): ≥ 20 µM
Kd (HLA-B*58:01; [19]): ≥ 20 µM
Kd (HLA-A*02:06): ≥ 20 µM
Kd (HLA-B*08:01 [12]): ≥ 20 µM
Kd (HLA-B*15:09; [19]): 22.9 nM
Kd (HLA-B*39:01; [19]): 17.9 nM

Sequence: WYDWQQVPF
Kd (HLA-C*04:01; source organism: West Nile virus): 0.007 µM
